These results are taken from paper PMC10112281.

Like-named read-outs stand apart in the source and are kept apart here. Where no end group is shown, it is not given here.

Test [1] deals with FIP200 CLAW domain (Homo sapiens) (UniProt Q8TDY2). The note with it: cited from earlier work.
For test [2] the target is unchanged. The note with it: cited from earlier work. The source holds these as a separate data set.
Test [3] deals with recombinant His6-TEV-FIP200-CLAW domain. The experiment in a line: fluorescence polarisation. A general note: Polarisation of emitted light reports the rotation of a fluorescent probe.
For test [4], the target named is T1, FITC-labeled TNIP1 FIR peptide, pS123.
T1 chain: SSGTSSEFEVVTPEE
In words: fluorescence polarisation.

Test [5] concerns the target T2, FITC-labeled TNIP1 FIR peptide, pS122.
T2 chain: SSGTSSEFEVVTPEE
The experiment in a line: fluorescence polarisation.

For test [6], the target named is T3, FITC-labeled TNIP1 FIR peptide, unmodified.
T3 chain: SSGTSSEFEVVTPEE
The experiment in a line: fluorescence polarisation.

For the molecule OPTN (from UniProt Q96CV9), the equilibrium dissociation constant (Kd) in test [1] was 306 µM. “OPTN phosphorylated (from UniProt Q96CV9)”: the dissociation constant Kd in test [2] is 11.5 µM. For the molecule SSGTSSEFEVVTPEE (also: phosphoserine pS123, place not mapped) [unlabeled TNIP1 pS123 peptide], in test [3], the half-inhibitory concentration (IC50) was 70.2 µM.

B1: recombinant His6-TEV-FIP200-CLAW domain (domain or fragment)
chain: SRHSEKIAIRDFQVGDLVLIILDERHDNYVLFTVSPTLYFLHSESLPALDLKPGEGASGASRRPWVLGKVMEKEYCQAKKAQNRFKVPLGTKFYRVKAVSWNKKV
modifications: not checked
In the case of B1, the results for the equilibrium dissociation constant (Kd) in test [4], in test [5] and in test [6] were 3.27 µM, 9.7 µM and 46 µM, respectively.

As usually defined, the Kd is a measure of binding affinity in units of concentration. Usually IC50 stands for the midpoint of a concentration-inhibition curve.
